Data: patent US8252764B2, “Compositions and methods of use of targeting peptides against placenta and adipose tissues” (priority 2000, dated 2012)

Columns and labels:
[1] = target: T1, FcRn/β2m receptor complex (Mus musculus, UniProt P01887+Q61559); test: Placental IgG transcytosis blocking; assay type: in vivo; conditions: 18 dpc pregnant mouse, iv, 6 h
T1 construct: from tissue; host or cells: placenta (visceral yolk sac) of 18 dpc pregnant C57BL/6 mice, in vivo
T1 sequence (Q61559 22-365): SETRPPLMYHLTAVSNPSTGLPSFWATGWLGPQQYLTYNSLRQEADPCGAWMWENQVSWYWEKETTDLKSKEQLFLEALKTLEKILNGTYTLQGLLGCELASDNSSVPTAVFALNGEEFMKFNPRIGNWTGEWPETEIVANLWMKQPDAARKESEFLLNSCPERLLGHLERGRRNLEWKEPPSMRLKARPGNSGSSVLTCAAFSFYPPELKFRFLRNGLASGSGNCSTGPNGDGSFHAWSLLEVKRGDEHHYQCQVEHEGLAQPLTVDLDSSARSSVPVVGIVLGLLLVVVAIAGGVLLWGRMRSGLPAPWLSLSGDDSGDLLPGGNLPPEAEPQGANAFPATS
T1 sequence (P01887 21-119): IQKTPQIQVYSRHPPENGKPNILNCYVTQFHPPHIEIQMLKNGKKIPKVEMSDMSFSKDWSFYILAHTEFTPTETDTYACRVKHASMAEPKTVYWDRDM
Procedure: A 18 dpc pregnant mouse was intravenously injected with: (A) 100 mg of control GST fusion or (B) TPKTSVT (SEQ ID NO:5) linked to GST. The IgG distribution in the placenta after 6 h of peptide circulation was detected by anti-mouse IgG immunohistochemistry in paraffin sections.
For in vivo peptide homing validation, 10 μl of FTC-peptide stocks diluted 20-fold with PBS or, 250 μl of 5 mg/ml GST-peptides were injected. For phage homing competition and IgG transcytosis blocking experiments, 500 μl of 5 mg/ml GST-peptides were administered intravenously.
For GST-peptide immunolocalization, a goat anti-GST antibody (Amersham, Piscataway, N.J.) was used at 1:1,000 dilution and detected with a secondary alkaline phosphatase (AP)-conjugated antibody. For mouse IgG immunolocalization, the ARK Peroxidase Kit (DAKO, Carpinteria, Calif.) was used. All immunohistochemistry and FITC immunofluorescence images were captured using an Olympus IX70 microscope and digital camera setup.

placental transporter = test: Phage recovery from embryos (materno-fetal transfer); assay type: in vivo, mouse; conditions: excess of co-injected peptide
Procedure: FIG. 4. The TPKTSVT (SEQ ID NO:5) peptide specifically binds a placental transporter. (A) Recovery of indicated phage from embryos carried by 18 dpc pregnant mice intravenously injected (tail vein) with 10^10 TU of the indicated phage 6 h prior to phage recovery or immunohistochemistry. […] TPKTSVT (SEQ ID NO:5) phage were administered alone (dark cross-hatched) or co-administered with control-GST (black) or TPKTSVT (SEQ ID NO:5) linked to GST (white bar). Shown are mean+/−SEM (standard error) from different embryos. (B-D) Anti-phage IMP immunohistochemistry (arrowheads) in paraffin sections of the vys from the corresponding mice, as indicated. Asterisks mark embryonic capillaries. Bar: 20 μm.
Phage Recovery Mouse placentas and embryonic livers were individually weighed, ground with a glass Dounce homogenizer and suspended in 1 ml of Dulbecco's Modified Eagle's Medium (DMEM) containing proteinase inhibitors (DMEM-prin—1 mM PMSF, 20 μg/ml aprotinin, and 1 μg/ml leupeptin). The suspension was vortexed and washed three times with DMEM-prin. […]
The TPKTSVT (SEQ ID NO:5) Peptide Binds to a Placental Transporter The TPKTSVT (SEQ ID NO:5) peptide localizes to the vys (FIG. 3), which is the tissue primarily responsible for materno-fetal transport in mice. […] Either TPKTSVT (SEQ ID NO:5)-phage or control phage were injected into pregnant mice and the recovery of phage from embryos was determined.

[2] = system: mouse villous yolk sac (vys); test: Peptide localization in placenta (immunohistochemistry, FITC immunofluorescence); assay type: in vivo; conditions: 18 dpc pregnant mice, intravenous, 6 h
Procedure: Fusion and Recombinant Peptides Carboxyfluorescein (FITC)-conjugated [sequence] […] The FITC-peptide stocks were made by dissolving lyophilized peptides in DMSO to a concentration of 20 mM, after which the peptides were diluted to 1 mM with PBS (phosphate buffered saline) and aliquots were frozen until use. The [sequence] (SEQ ID NO:144) peptide and an unrelated control peptide, [sequence] (SEQ ID NO:87), fused in-frame with GST at the amino-terminus were purified to approximately 90% purity using the BugBuster GST Bind Kit (Novagen, Madison, Wis.). Purified peptides were buffer-exchanged into PBS using Centricon PL-10 columns (Millipore, Bedford, Mass.) and the aliquots were frozen until use. […]
Peptide Localization in Tissues Immunohistochemistry on sections of formalin-fixed, paraffin-embedded mouse tissue was performed as described (Pasqualini et al., 2000; Pasqualini and Ruoslahti, 1996): For phage-peptide immunolocalization, a rabbit anti-fd phage antibody (Sigma Chemicals, St. Louis, Mo.) was used at 1:1,000 dilution and detected with a secondary horseradish peroxidase (HRP)-conjugated antibody. For GST-peptide immunolocalization, a goat anti-GST antibody (Amersham, Piscataway, N.J.) was used at 1:1,000 dilution and detected with a secondary alkaline phosphatase (AP)-conjugated antibody. […]

placenta [3] = test: Peptide embryotoxicity in pregnant mice; assay type: in vivo, mouse; conditions: subcutaneous injections from ~12 dpc
Source text: FIG. 7. TPKTSVT (SEQ ID NO:5) peptide inhibits mouse pregnancy and is teratogenic. (A) Pregnancy courses (representative from 5 independent experiments) in mice subcutaneously injected with the indicated phage or peptides were monitored by daily weighing of the mice upon each injection (arrows). (B) Appearance of a normally developed 20 dpc embryo (left) for control GST fusion treatment compared to a representative 20 dpc embryo (right) resulting from TPKTSVT (SEQ ID NO:5) linked to GST fusion treatment. A severely teratogenic phenotype is observed with the placental targeting fusion peptide. (C) and […]) Hematoxylin/eosin staining of 20 dpc paraffin-embedded placentas derived from mice injected for 7 days with (C) control GST fusion or (D) the TPKTSVT (SEQ ID NO:5) linked to GST fusion peptide. Note hemorrhage (black asterisks), necrosis (white asterisks), and fibrosis (arrowheads). Bar: 500 μm (50 μm for insets).
Peptide Embryotoxicity For peptide embryotoxicity studies, agents were injected at the following daily doses: GST-peptides 0.1 mg (˜3 nMoles), FITC-peptides 50 μg (˜30 nMoles),and phage-peptides 10″ TU. All agents were dissolved in PBS. Mice were injected subcutaneously in the back (5-10 injections per course).
The phage or fusion peptides were subcutaneously injected and the progression of pregnancy was compared with mice injected with control phage, control peptides, or saline. Multiple injections of the TPKTSVT (SEQ ID NO:5) peptide were administered, starting at mid-pregnancy (˜12 days postconception, dpc) in doses non-toxic to the mother.

placenta [4] = conditions: GST conjugates-I; 1 mouse sc (predominantly) or iv ~every other day, day 4-day 17, 10 times, Total 800 μg
Source text: The CARAC peptide (SEQ ID NO:12), an adipose targeting peptide (FE, TREVHRS, SEQ ID NO:13) or fd-tet phage were used as non-placental targeting controls.

GST-β1 = target: T2, GST-β1 (Homo sapiens, UniProt P05556); test: Annexin V binding to GST-β1 integrin cytoplasmic domain (ELISA)
T2 construct: Plates were coated with GST fusion proteins of the cytoplasmic domains of various integrins
Procedure: (§1) Competitive binding assays were performed to examine the binding of Annexin V to β5 integrin and the effect of the VISY peptide. Plates were coated with GST fusion proteins of the cytoplasmic domains of various integrins and Annexin V was added to the plates. Binding of Annexin V was determined using anti-Annexin V antibodies. […] Calcium was used because Annexin V activity has been reported to be modulated by calcium. Binding of Annexin V to GST-β5 was blocked by addition of the VISY peptide (FIG. 29A).

β5 integrin = target: T3, β5 integrin (Homo sapiens, UniProt P18084); test: Annexin V binding to GST-β5 integrin cytoplasmic domain (ELISA, competition); conditions: binding dependent on the buffer: low in TBS, high in cytoplasmic buffer
T3 construct: Plates were coated with GST fusion proteins of the cytoplasmic domains of various integrins
T3 sequence (P18084 743-799 limits assumed): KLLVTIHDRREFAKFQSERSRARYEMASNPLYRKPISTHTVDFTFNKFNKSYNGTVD
Procedure: FIG. 29A. Competitive binding of Annexin V to β5 integrin with VISY peptide. Binding assays were performed by ELISA.
as §1
A reciprocal study was performed, using Annexin V to coat plates and adding GST fusion proteins of integrin cytoplasmic domains. Binding was assessed using anti-GST fusion protein antibodies. […] In some studies, calcium ion appeared to interfere with the binding interaction between GST-β5 and Annexin V, with decreased binding observed in the presence of calcium (not shown).

GST-β3 = target: T4, GST-β3 (Homo sapiens, UniProt P05106); test: Annexin V binding to GST-β3 integrin cytoplasmic domain (ELISA)
T4 sequence (P05106 742-788 limits assumed): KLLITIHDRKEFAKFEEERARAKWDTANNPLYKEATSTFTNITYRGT
Procedure: as §1

T2 sequence (P05556 752-798 limits assumed): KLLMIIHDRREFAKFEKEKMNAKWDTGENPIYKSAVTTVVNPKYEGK

| Substance | effect on placental transfer of IgG to the vys [1] | effect on materno-fetal transfer / vys uptake of TPKTSVT-phage on co-injection (placental transporter) | localization in placenta [2] | embryos on the 20th day of pregnancy (placenta [3]) | progression of pregnancy (weight gain) (placenta [3]; compared to control phage or GST-peptide) | Peptide Effect on Embryo (placenta [4]) | Pregnancy Outcome (placenta [4]) | binding of Annexin V to GST-β1 integrin (GST-β1) | binding of Annexin V to GST-β5 integrin (β5 integrin) | binding of Annexin V to GST-β3 integrin (GST-β3) |
| --- | --- | --- | --- | --- | --- | --- | --- | --- | --- | --- |
| GST-PA: PA placental targeting peptide (TPKTSVT) fused to GST (glutathion S-transferase) | blocked translocation of IgG through the placenta | prevented internalization | readily detectable in the apical cytoplasm of the vys | Growth-retarded, dead, or partially resorbed embryos | diminished weight gain | Pregnancy termination | No delivery or fetuses after 21 d | – | – | – |
| Annexin V: 36 kDa endogenous protein analog of the VISY peptide, GenBank GI-468888 | – | – | – | – | – | – | – | did not bind | bound strongly | did not bind |
